Measured values taken from patent publication US20030232325A1 (MOUNT SINAI SCHOOL OF MEDICINE OF NEW YORK UNIVERSITY, published 2003).

Columns and labels:
[1] = molecular target: T1, gst alone (glutathione-S-transferase expressed from pGEX-2TK) (UniProt P08515 1-218 = GST); test: far-western blot, 32P-labelled gst probe
[2] = molecular target: T1, gst alone (glutathione-S-transferase …); test: far-western blot, 32P-labelled gst probe on bacterial extract
[3] = molecular target: VSV M protein (form used not stated; discussion of Example 9, data not shown) (vesicular stomatitis virus, UniProt P03519 1-229); test: far-western blot presumably; data not shown

T1 sequence (P08515 whole entry): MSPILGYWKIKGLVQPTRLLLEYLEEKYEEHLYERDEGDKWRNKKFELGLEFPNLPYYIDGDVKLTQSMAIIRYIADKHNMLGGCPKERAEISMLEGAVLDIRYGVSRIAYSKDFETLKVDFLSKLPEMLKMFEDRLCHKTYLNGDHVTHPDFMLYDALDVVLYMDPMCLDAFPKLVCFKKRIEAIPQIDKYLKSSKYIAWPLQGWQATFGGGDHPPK

B1: gstRabM52WT (gst fused to amino acids 1-52, wild type, of the rabies virus M protein) (other)
chain: MNLLRKIVKNRRDEDTQKSSPASAPLDDDDLWLPPPEYVPLKELTGKKNMRN
B1: no binding [1].

B2: gstRabM202 (gst fused to amino acids 1-202, full-length, of the rabies virus M protein) (other)
chain: MNLLRKIVKNRRDEDTQKSSPASAPLDDDDLWLPPPEYVPLKELTGKKNMRNFCINGRVKVCSPNGYSFRILRHILKSFDEIYSGNHRMIGLVKVVIGLALSGSPVPEGLNWVYKLRRTFIFQWADSRGPLEGEELEYSQEITWDDDTEFVGLQIRVIAKQCHIQGRVWCINMNPRACQLWSDMSLQTQRSEEDKDSSLLLE
B2: no binding [1].

B3: gstRabM69 (gst fused to amino acids 1-69 of the rabies virus M protein) (other)
chain: MNLLRKIVKNRRDEDTQKSSPASAPLDDDDLWLPPPEYVPLKELTGKKNMRNFCINGRVKVCSPNGYSF
B3: no binding [1].

B4: gstVSVM74WT (gst fused to the N-terminal 74 amino acids of VSV (Ind.) M protein, wild type PY motif) (other)
chain: MSSLKKILGLKGKGKKSKKLGIAPPPYEEDTSMEYAPSAPIDKSYFGVDEMDTYDPNQLRYEKFFFTVKMTVRS
B4: no binding [2].

B5: WW domain from ESS 1 (other)
chain: TGLPTPWTVRYSKSKKREYFFNPETKHSQWEEPEG
notes: domain: WW
B5: no binding [3].
